Assay results as given in patent publication US20200181226A1 (UNUM THERAPEUTICS, published 2020).

How the values were obtained:
[1] = target: T1, ACTR variant SEQ ID NO: 9; experiment: flow cytometry titration of rituximab on T cells expressing ACTR variant SEQ ID NO: 9; bound rituximab detected with a fluorochrome-labeled anti-human Fc antibody
T1 construct: also called ACTR T cells; ACTR-expressing T cells

[2] = target: T1, ACTR variant SEQ ID NO: 9; experiment: apparent affinity; flow cytometry, rituximab titrated on ACTR-expressing T cells, anti-human Fc detection
[3] = target: T1, ACTR variant SEQ ID NO: 9; experiment: cell-based or functional assay

T1 sequence (chain, as listed by the source mutant limits assumed): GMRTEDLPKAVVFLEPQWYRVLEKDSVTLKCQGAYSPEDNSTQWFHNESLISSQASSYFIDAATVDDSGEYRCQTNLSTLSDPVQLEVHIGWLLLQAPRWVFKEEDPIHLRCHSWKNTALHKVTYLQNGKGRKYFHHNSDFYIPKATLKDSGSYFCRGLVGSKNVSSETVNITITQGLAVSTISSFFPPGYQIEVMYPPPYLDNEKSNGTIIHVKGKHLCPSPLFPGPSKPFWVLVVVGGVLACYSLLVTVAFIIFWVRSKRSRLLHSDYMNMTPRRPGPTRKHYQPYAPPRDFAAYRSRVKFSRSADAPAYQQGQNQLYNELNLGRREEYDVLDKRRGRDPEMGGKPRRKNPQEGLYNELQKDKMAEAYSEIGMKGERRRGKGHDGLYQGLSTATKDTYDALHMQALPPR

B1: rituximab (antibody, V domains shown)
VH: QVQLQQPGAELVKPGASVKMSCKASGYTFTSYNMHWVKQTPGRGLEWIGAIYPGNGDTSYNQKFKGKATLTADKSSSTAYMQLSSLTSEDSAVYYCARSTYYGGDWYFNVWGAGTTVTVSA
VL: QIVLSQSPAILSASPGEKVTMTCRASSSVSYIHWFQQKPGSSPKPWIYATSNLASGVPVRFSGSGSGTSYSLTISRVEAEDAATYYCQQWTSNPPTFGGGTKLEIK
With B1 the “EC50 (read off the curve)” value [1] was roughly 700 nM, the Kd [2] was 689 nM and the “EC50 (µg/mL) of cytotoxicity, Raji Target Cells + Rituximab” value [3] was 0.07 µg/mL.
